Measured values published in US6703037B1, “Biodegradable macromers for the controlled release of biologically active substances” (Pelias Technologies, Inc., priority 1997, dated 2004).

Key:
male Sprague-Dawley rats = assay: Fraction of reticulocytes in rats given EPO (Example 11); format: in vivo, rat; details: day 5, Acridine Orange, flow cytometry
Method: The controlled delivery of active human erythropoeitin (EPO) was confirmed in male Sprague-Dawley rats purchased from Taconic Labs (Germantown, N.Y.). Hydrogel devices were manufactured to contain 3000 Units per device, as described in Example 14. These devices were prepared in the absence of vinyl pyrrolidone, and other polymerizable monovinyl monomers. One of these devices was implanted in each of 3 rats. Three other rats received a subcutaneous injection of EPO (1000 Units) daily for 3 days. A control group of 3 rats received no treatment.
On day 5 after implantation of the device or the start of the subcutaneous injections, venous blood samples were obtained from each rat and stored in EDTA. The fraction of reticulocytes (immature red blood cells) was determined after staining with Acridine Orange by automated flow cytometry.

[1] = In vitro release of EPO from 3.4KL5 discs, size exclusion chromatography (Example 14); format: physicochemical
Method: To a sterile 20 mL vial were added: 0.0330 g of TEOA (neat), 1.0076 g of 3.4KL5, 0.0598 g of 1000 ppm eosin (in PBS, pH 7.0), and 2.32 g solution of EPO (10,000 units/mL). No vinyl pyrrolidone, or other polymerizable monovinyl monomer was added. The resulting mixture was mixed and polymerized by light (ILC Technology, Inc. Xenon Light Source with Fiber Optics).
The rate of in vitro release was conducted by averaging the release from 3 discs containing an average of 2500 units per disc. The release was conducted in 4 mL of PBS (pH 7.4) at 39° C. The release media was exchanged daily. Analysis was done by size exclusion chromatography. (HPLC: model 2690 by waters, Column: SEC 250 by BioRad, mobile phase: 0.8M TFA in 60% acetonitrile @1.5 mL/min, detector wavelength: 220 nm).

[2] = In vitro short term release of insulin from 3.4KL5, SEC-HPLC (Example 6); format: physicochemical; details: Zn-Insulin 47% loading in 3.4KL5
Method: Device Preparation: A degradable macromer (3.4KL5) was used. […] The protein was loaded at a loading of 47%, based on dry weight. Three samples were prepared.
The samples were prepared as described in Example 4. The samples were analyzed by SEC-HPLC for the detection of monomers, dimers and soluble aggregates, using the conditions described in Example 5.

[3] = In vitro release of insulin from 3.4KL5 particles, size exclusion chromatography (Example 15); format: physicochemical
Method: No vinyl pyrrolidone, or other polymerizable monovinyl monomer was added. The resulting mixture was mixed and placed into 10 mL glass tubes. The tubes were exposed to xenon light (ILC Technology, Inc. Xenon Light Source with Fiber Optics) for 10 seconds. The semi-cured hydrogel was pushed out of the glass tube and further polymerized for 3.5 minutes. The cured hydrogel rods were placed in 15 mL of heptane and ground using a homogenizer (Silverson L4RT-A) for 30 seconds @5000 rpm, followed by 30 seconds @3000 rpm. The heptane was decanted, and the powder was dried under nitrogen.
Particles (16 mg) were placed in a porous (0.8 mm) “release-bag” (described in Example 5). The in vitro release was calculated by averaging the release from 2 release bags. The release-bag was placed into 2 mL of PBS (pH 7.4) at 39° C. The release media was exchanged every 15 minutes for the first 2 hours and every 30 minutes thereafter. Analysis was done by size exclusion chromatography. (HPLC: model 2690 by waters, Column: SEC 250 by BioRad, mobile phase: 0.8M TFA in 60% acetonitrile @1.5 mL/min, detector wavelength: 220 nm).

hypophysectomized rats [4] = assay: Growth of hypophysectomized rats given hGH (Example 13); format: in vivo, rat; details: hypophysectomized female rats; initial results
Text: The controlled delivery of active human growth hormone (hGH, MW 20 Kd) was confirmed in the hypophysectomized rat model. Hypophysectomized female rats purchased from Taconic Labs (Germantown, N.Y.) were weighed each morning. Prior to the initiation of the study the rats were held 7 days to confirm lack of growth. The rats were divided into 3 groups of equal mean weights. Group 1 remained untreated and served as a negative control. Group 2 received an implant of hGH in a hydrogel made of a 3:1 blend of 3.4KL5 and 3.4KC6 (each device contained approximately 1 mg of hGH). The rats in Group 3 were injected with 100 μg hGH subcutaneously each day for the duration of the study.

[5] = In vitro release of bST from 3.4KL5/PEG-diacrylate blend discs, SEC-HPLC (Example 5); format: physicochemical
Method: Device Preparation: A blend of a degradable macromer (3.4KL5) and a non-degradable macromer (PEG-diacrylate, MW 3,400) was used. The protein used was ZnbST (Monsanto/Protiva). The protein was loaded at a loading of 20%, based on dry weight. 3 samples were prepared, as follows.
Sample preparation: 20 μL of the bST-precursor solution were prepared, as described in Example 1. The mixture was pipetted using a positive displacement pipette with a silanized glass tip. The solution was placed onto a silanized glass slide. Using pieces of plastic sheets with thicknesses of about 0.4±0.2 mm as spacers, another silanized glass slide was placed on top and held firmly in place using binder clips. A light source (ILC Technology, Inc. Xenon Light Source with Fiber Optics) was adjusted to about a 5-cm distance from the glass slide using clamps and a stand. The center of the disc was illuminated; both sides of the disc were illuminated, for two minutes each.
The clips, the glass slide, and the spacers were carefully removed. With a spatula and tweezers, the discs were removed and weighed on a clean, tared silanized glass slide. The disc was placed into a heat-sealed membrane bag, as described in more detail below. One 20 μL disc was placed in each bag. The bag was heat-sealed, placed in 2.0 mL of phosphate buffer release media (0.01% NaN3, 0.05M PBS, pH 7.4), placed on an orbital shaker turning at 100 rpm, and incubated at 39° C.
For each time point, the bag was placed into fresh 2.0 mL of PBS Release Media. Samples were collected for analysis every day for as long as the bST was being released.
Membrane bags were prepared as follows. Membrane sheets were cut into pieces of approximately 7×2.5 cm. The sheets were folded in half. Using a Bunsen burner or a propane torch, a spatula was heated until it became red. The edges of the sheets were aligned, and the side of the membrane was cut with the […] to seal the sides. […]
The samples were analyzed daily by SEC-HPLC. Monomers, dimers, and soluble aggregates could be detected using this method. […]

hypophysectomized rats [6] = assay: Growth of hypophysectomized rats given bST (Example 9); format: in vivo, rat; details: hypophysectomized female rats, 118±1.5 grams on day 1; mean±sem
Text: The controlled delivery of active bovine somatotropin (MW 20 Kd) was confirmed in the hypophysectomized rat model. Hypophysectomized female rats were purchased from Taconic Labs (Germantown, N.Y.). The rats were weighed each morning. Prior to the initiation of the study, the rats were held 7 days to confirm lack of growth. On day 1 of the study the rats weighed 118±1.5 grams (mean±sem, n=18). The rats were divided into 3 groups of equal mean weights. Group 1 remained untreated and served as a negative control. Group 2 received an implant of bST in a hydrogel made of a blend of 3:1 of 3.4KL5 and PEGDA (each device contained 0.9 to 1.1 mg of bST). The rats in Group 3 were injected with 100 μg bST subcutaneously each day for the duration of the study.

[7] = Release of bST from cylindrical hydrogel devices of large and small diameter, HPLC (Example 10); format: physicochemical
Method: A macromer mixture containing approximately 30% (w/w) of bST was prepared using the methods described above. The macromer/protein mixture was put in a glass cylinder having an internal diameter of either 1.12 mm or 0.61 mm. The system was exposed to light for 20 seconds, removed from the glass cylinder, placed on aluminum foil, and exposed to light for an additional 3.5 minutes. The resulting hydrogel cylinders were placed in 1 mL of release media (PBS, pH 7.4), and the released bST was monitored by HPLC. […] In addition, the characteristics of the bST release indicated degradation/swelling of a controlled system. […] For n=0.5, the drug release follows a Fickian-diffusion mechanism. For n>0.5, non-Fickian behavior was observed.
In a different analysis based only on diffusion, the flux from the cylinder was analyzed using the following Fickian equation: J=D*A*ΔC/ΔX, where J is the flux; D is the diffusion constant; A is the surface area; C is the concentration in the cylinder; and […] from the center. In this analysis the flux should differ dramatically whether the release occurred from either a large or a small diameter cylinder. Theoretical analysis predicted that under Fickian diffusion, when the smaller diameter cylinder released 20%, the larger diameter cylinder would release 7% of the incorporated drug. […]

[8] = In vitro release of ZnbST from 50:50 blend of 3.4KL5 and 3.4KC6, SEC-HPLC (Example 7); format: physicochemical; details: 25% loading in 50:50 blend of 3.4KL5 and 3.4KC6
Method: Devices were prepared as describe above. Macromers containing a blend of a soluble macromer (3.4KL5) and an insoluble macromer (3.4KC6) were used in a ratio of 50:50. The protein used was ZnbST (Protiva/Monsanto); it was loaded at a loading of 25%, based on dry weight. Six samples were prepared. The samples were analyzed by SEC-HPLC, as described above. The samples were monitored for the presence of monomers, dimers and soluble aggregates.

[9] = In vitro release of ZnbST from 75:25 blend of 3.4KL5 and 3.4KC6, SEC-HPLC (Example 8); format: physicochemical
Method: Devices were prepared as describe above. A blend of a soluble macromer (3.4KL5) and an insoluble macromer (3.4KC6) were used, in a ratio of 75:25. The protein ZnbST (Protiva/Monsanto) was loaded at a loading of 25%, based on dry weight. Six samples were prepared. The samples were analyzed by SEC-HPLC to detect monomers, dimers, and soluble aggregates, as described above.

EPO: human erythropoeitin
reticulocytes (male Sprague-Dawley rats): about 19% | EPO still being released ([1]; after 120 hours): over 500 units | period over which EPO was released ([1]; average 2500 units per disc, PBS pH 7.4, 39° C.): at least 120 hours

Insulin: Zn-Insulin / insulin purchased from Sigma, loaded into 3.4KL5
dimers or soluble aggregates ([2]; SEC-HPLC): no dimers or soluble aggregates were detected | release achieved (complete release) ([2]; within 24 hours): 100% | period over which insulin was released ([3]; 3.4KL5 particles (16 mg) in release-bag, PBS pH 7.4, 39° C.): 90 min | insulin still being released ([3]; after 90 minutes, 3.4KL5 particles): 100 µg

hGH: human growth hormone (MW 20 Kd)
growth of the rats (hypophysectomized rats [4]): exhibited continued growth

B1: bovine somatotropin (protein, UniProt P01246 27-217, looked up)
Somatotropin: AFPAMSLSGLFANAVLRAQHLHQLAADTFKEFERTYIPEGQRYSIQNTQVAFCFSETIPAPTGKNEAQQKSDLELLRISLLLIQSWLGPLQFLSRVFTNSLVFGTSDRVYEKLKDLEEGILALMRELEDGTPRAGQILKQTYDKFDTNMRSDDALLKNYGLLSCFRKDLHKTETYLRVMKCRRFGEASCAF
notes: bovine somatotropin (MW 20 Kd)
initial release on each of the first two days ([5]; ZnbST 20% loading in blend of 3.4KL5 and PEG-diacrylate): 12% | period over which bST was released ([5]; ZnbST 20% loading in blend of 3.4KL5 and PEG-diacrylate MW 3,400, PBS pH 7.4, 39° C.): 14 days | dimers or soluble aggregates in the release media ([5]; ZnbST 20% loading in blend of 3.4KL5 and PEG-diacrylate, SEC-HPLC): No detectable levels | body weight after 11 days (hypophysectomized rats [6]): 151±4 grams | exponent n characteristic of the mode of transport ([7]; both cylinders, n>0.5 = non-Fickian): 2 | incorporated drug released by the larger diameter cylinder (observed) ([7]; when the smaller diameter cylinder released 20%): 16%

B2: ZnbST: ZnbST protein (Monsanto/Protiva) loaded into macromer hydrogels (protein, UniProt P01246 27-217, looked up)
Somatotropin: B1 Somatotropin
modifications: zinc complex
notes: ZnbST protein (Monsanto/Protiva) loaded into macromer hydrogels
initial burst release [8]: no initial burst release was observed | period over which ZnbST was released [8]: 20 days | concentrations of dimers or soluble aggregates ([8]; SEC-HPLC): less than 2% | period over which ZnbST was released ([9]; 25% loading in 75:25 blend of 3.4KL5 and 3.4KC6): 17 days | dimer or aggregate released ([9]; 75:25 blend of 3.4KL5 and 3.4KC6, SEC-HPLC): Very little | incorporated ZnbST released ([9]; within 13 days of release, 75:25 blend of 3.4KL5 and 3.4KC6): 90%
